Results on five molecules are retold here after US20230014398A1 (University of Texas, published 2023).

For assay [1], the target named is TLR5 on HCT116 cells (UniProt O60602). Description: cell-based or functional assay.
The target of assay [2] is T1, Human 4Ig-B7-H3 extracellular domain (human, UniProt Q5ZPR3 29-466).
T1 construct: extracellular domain
T1 sequence (looked up): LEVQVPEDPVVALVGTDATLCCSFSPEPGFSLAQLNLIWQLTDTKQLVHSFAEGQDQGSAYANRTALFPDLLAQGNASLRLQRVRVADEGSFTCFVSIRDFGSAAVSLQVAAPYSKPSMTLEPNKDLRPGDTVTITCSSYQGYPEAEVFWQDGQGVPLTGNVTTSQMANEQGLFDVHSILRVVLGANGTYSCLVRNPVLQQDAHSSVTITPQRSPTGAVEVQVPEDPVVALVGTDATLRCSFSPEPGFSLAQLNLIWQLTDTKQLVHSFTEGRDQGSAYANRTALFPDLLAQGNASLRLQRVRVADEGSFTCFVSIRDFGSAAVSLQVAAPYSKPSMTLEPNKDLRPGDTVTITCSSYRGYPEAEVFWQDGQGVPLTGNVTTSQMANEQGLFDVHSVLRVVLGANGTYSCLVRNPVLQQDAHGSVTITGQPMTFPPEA
Put plainly: biolayer interferometry (Octet), comparison of Kd values of Table 6.
Description: (§1) The extracellular domains of the indicated B7 family proteins were purchased from R&D Systems. All proteins were validated by the vendor to be both pure and functional.

Assay [3] deals with T1, Human 4Ig-B7-H3 extracellular domain. Put plainly: ELISA, extracellular domain plated on 96-well plates, MIL33B titrated, absorbance read.
Description: The extracellular domains of human 4Ig-B7-H3 and murine 2Ig-B7-H3 were purchased and plated down onto 96-well plates. […] Plates were then washed and assessed for antibody binding through absorbance measurements.
Assay [4] addresses T2, Mouse 2Ig-B7-H3 extracellular domain (mouse, UniProt Q8VE98 29-248).
T2 construct: extracellular domain; Purchased recombinant extracellular domain; also called murine 2Ig-B7-H3
T2 sequence (looked up): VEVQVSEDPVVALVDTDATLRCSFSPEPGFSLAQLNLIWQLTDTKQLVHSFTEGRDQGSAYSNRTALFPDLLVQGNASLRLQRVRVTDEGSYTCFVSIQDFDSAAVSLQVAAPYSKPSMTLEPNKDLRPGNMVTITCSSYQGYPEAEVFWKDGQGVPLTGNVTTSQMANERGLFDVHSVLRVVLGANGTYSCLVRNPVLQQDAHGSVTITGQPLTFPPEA
Put plainly: ratio of Kd values, told as the reason for using 100 ug/mL MIL33B-A594 on Pan02 cells.

For assay [5], the target named is T3, Human 2Ig-B7-H3 extracellular domain (human, UniProt Q5ZPR3 29-466).
T3 chain: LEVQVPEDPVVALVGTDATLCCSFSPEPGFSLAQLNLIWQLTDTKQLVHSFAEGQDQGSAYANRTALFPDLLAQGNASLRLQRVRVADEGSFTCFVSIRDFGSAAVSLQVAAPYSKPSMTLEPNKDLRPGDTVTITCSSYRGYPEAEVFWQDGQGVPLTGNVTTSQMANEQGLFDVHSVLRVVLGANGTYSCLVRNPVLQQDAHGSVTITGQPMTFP
Description: biolayer interferometry (Octet), MIL33B captured on the probe, extracellular domain in solution. A general note: Biolayer interferometry detects binding as a change in optical thickness at a sensor tip.
Description: (§2) Dissociation constants, Kd, were determined utilizing biolayer interferometry (Octet) assays. […] The surface is then placed into a solution of analyte and the phase shift indicating binding was measured over time. The probe was then moved into a solution without analyte and the time course of off-binding was measured. This cycle was repeated for multiple analyte concentrations, and the Kd was calculated from global curve fitting of the concentration- and time-dependence of the analyte binding to the antibody.
as §1

Assay [6] deals with T2, Mouse 2Ig-B7-H3 extracellular domain. Described as above.
Description: as §2, §1
Assay [7] deals with T1, Human 4Ig-B7-H3 extracellular domain. The description is as above.
Description: as §2, §1
Assay [8] deals with T4, Human 4Ig-B7-H3 expressed on cells (human, UniProt Q5ZPR3 29-534).
T4 construct: whole, on cells; also called native 4Ig-B7-H3 on HeLa and HCT116 cells; human 4Ig-B7-H3 on transduced 4T1, B16F10 and L cells
T4 sequence (looked up): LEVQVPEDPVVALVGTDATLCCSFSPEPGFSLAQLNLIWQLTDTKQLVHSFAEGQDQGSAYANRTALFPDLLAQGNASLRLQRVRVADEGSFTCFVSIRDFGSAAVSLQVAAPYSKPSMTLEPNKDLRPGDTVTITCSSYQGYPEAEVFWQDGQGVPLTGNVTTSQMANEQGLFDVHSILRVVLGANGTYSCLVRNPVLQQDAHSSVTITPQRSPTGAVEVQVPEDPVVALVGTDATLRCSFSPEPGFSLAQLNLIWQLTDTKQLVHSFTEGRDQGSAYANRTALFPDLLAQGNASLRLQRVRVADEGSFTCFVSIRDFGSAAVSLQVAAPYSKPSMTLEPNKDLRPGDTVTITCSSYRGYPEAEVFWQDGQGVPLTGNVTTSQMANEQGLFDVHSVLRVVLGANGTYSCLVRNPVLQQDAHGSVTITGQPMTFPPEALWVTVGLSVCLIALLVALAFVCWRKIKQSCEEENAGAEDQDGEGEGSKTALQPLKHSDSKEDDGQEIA
Description: live cell immunofluorescence microscopy on 4T1 cells transduced with human 4Ig-B7-H3, labeled antibody at 1 µg/mL.
Description: Murine breast tumor, 4T1 cells (ATCC), were stably transduced with human 4Ig-B7-H3 or empty vector using lentiviral constructs.
(§3) Cells were washed and imaged by fluorescence microscopy (TiE, Nikon).

Assay [9] has as its target T5, Murine 2Ig-B7-H3 expressed on cells (mouse, UniProt Q8VE98 29-316).
T5 construct: whole, on cells; also called murine B7-H3 expressed on tumor cells; 2Ig-B7-H3 on Pan02 and 4T1 cells
T5 sequence (looked up): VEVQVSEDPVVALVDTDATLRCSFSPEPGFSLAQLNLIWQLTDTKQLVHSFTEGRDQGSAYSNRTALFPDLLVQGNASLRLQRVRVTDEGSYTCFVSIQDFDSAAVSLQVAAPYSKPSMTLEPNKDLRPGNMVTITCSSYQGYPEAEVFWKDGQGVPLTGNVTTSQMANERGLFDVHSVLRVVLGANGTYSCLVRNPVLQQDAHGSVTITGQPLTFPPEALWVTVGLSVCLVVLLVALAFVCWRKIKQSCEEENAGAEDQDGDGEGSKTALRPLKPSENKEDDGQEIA
Description: live cell immunofluorescence microscopy on Pan02 cells, MIL33B-A594 at 100 µg/mL; one panel blocked with unlabeled MIL33B.
Description: as §3

Assay [10] deals with T4, Human 4Ig-B7-H3 expressed on cells. Put plainly: in vivo PET of 89Zr-DFO-labeled antibody in mice bearing 4T1 or B16F10 tumors with human 4Ig-B7-H3 or vector control, %ID/cc of tumor VOIs at 24 and 72 hr.
Description: (§4) Immune competent mice bearing subcutaneous 4T1 tumors expressing human 4Ig-B7-H3 or negative vector (see Western blots in FIG. 3) were utilized. […] Similarly, B16F10 cells were transduced with human 4Ig-B7-H3 or empty vector. These cells have less endogenous murine 2Ig-B7H3 than 4T1 tumors.
The target in assay [11] is T5, Murine 2Ig-B7-H3 expressed on cells. Description: PET imaging in mice with 4T1 or B16F10 tumors carrying the negative (empty) vector, with endogenous murine 2Ig-B7-H3 only, 24 and 72 hr after injection.
Description: as §4
The target of assay [12] is T1, Human 4Ig-B7-H3 extracellular domain. Description: ELISA.

Chain of TLR5 on HCT116 cells (O60602 21-858 limits assumed): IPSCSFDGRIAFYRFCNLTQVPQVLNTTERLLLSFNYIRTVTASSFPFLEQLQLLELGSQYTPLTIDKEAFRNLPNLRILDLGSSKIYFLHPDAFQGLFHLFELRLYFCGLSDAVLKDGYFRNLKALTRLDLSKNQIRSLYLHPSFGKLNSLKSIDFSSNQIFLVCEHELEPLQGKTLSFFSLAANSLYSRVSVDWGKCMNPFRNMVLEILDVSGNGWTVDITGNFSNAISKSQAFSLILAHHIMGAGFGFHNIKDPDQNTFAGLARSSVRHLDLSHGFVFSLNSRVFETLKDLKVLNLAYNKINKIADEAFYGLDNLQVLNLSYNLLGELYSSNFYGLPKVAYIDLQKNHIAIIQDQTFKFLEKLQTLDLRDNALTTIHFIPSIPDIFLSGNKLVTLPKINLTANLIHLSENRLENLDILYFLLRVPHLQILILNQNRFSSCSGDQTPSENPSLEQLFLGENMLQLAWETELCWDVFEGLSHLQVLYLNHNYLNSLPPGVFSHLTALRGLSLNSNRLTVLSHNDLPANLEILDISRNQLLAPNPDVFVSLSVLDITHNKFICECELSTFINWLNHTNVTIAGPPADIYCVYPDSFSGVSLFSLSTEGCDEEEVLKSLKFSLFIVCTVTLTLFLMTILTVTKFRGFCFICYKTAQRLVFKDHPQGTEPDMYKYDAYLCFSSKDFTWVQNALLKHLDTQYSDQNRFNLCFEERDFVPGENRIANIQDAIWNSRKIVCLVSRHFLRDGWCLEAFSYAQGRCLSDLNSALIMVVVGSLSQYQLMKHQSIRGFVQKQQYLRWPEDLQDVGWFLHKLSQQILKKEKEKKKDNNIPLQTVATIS

In the case of Purified flagellin (ligand), the activation of NF-kB (kB-RE5-IkBa-Fluc reporter in HCT116 cells) in [1] stood at 1.8 nM.

B1: MIL33B monoclonal antibody (antibody, IgG2a, V domains shown)
VH: EVQLQQSGPELVKPGASVKMSCKASGYTFTSYVMHWVRQSPGQGLEGIGYINSYSDGTKYNEKFKGKATLTSDKSSSTAYMELSGLTSEDSAVYYCARWGGLGNGAMDYWGQGTSVTVSS
VL: QIVLTQSPAIMSASPGEKVTMTCSVSSSVNYMHWYQQKSGTSPKRWIYDTSKLASGVPARFSASGSGTSYSLTISSMEAEDAATYYCQQWTSNPLTFGAGTKLELK
notes: Mouse hybridoma antibody from an NZBWF1/J mouse; constant regions are not; also called MIL33B mAb; MIL33B antibody
As to B1, the “fold better binding than to other B7 family members” value in assay [2] was no less than 1000 fold. The EC50 (read off the curve) (usually the concentration needed to bring the measured effect to its halfway point) in assay [3] was roughly 100 pM. In addition, the “fold shift in Kd from human 4Ig-B7-H3 to murine 2Ig-B7-H3” value in assay [4] is roughly 100 fold. Besides, the equilibrium dissociation constant (Kd) (commonly the constant that tells how readily two partners part at equilibrium) in assay [5] amounted to 580 pM; in [6], 41100 pM; in assay [7], 72.3 pM.

B2: MIL33B labeled with Alexa594 fluorophore (antibody, V domains shown)
VH: EVQLQQSGPELVKPGASVKMSCKASGYTFTSYVMHWVRQSPGQGLEGIGYINSYSDGTKYNEKFKGKATLTSDKSSSTAYMELSGLTSEDSAVYYCARWGGLGNGAMDYWGQGTSVTVSS
VL: QIVLTQSPAIMSASPGEKVTMTCSVSSSVNYMHWYQQKSGTSPKRWIYDTSKLASGVPARFSASGSGTSYSLTISSMEAEDAATYYCQQWTSNPLTFGAGTKLELK
modifications: Alexa594 fluorophore on the antibody, residues not stated
notes: also called MIL33B-A594; Alexa594-labeled MIL33B
With B2, the binding result in assay [8] and in assay [9] was “binds” each time.

B3: MIL33B conjugated with DFO and radiolabeled with 89Zr (antibody, mouse IgG2a, V domains shown)
VH: EVQLQQSGPELVKPGASVKMSCKASGYTFTSYVMHWVRQSPGQGLEGIGYINSYSDGTKYNEKFKGKATLTSDKSSSTAYMELSGLTSEDSAVYYCARWGGLGNGAMDYWGQGTSVTVSS
VL: QIVLTQSPAIMSASPGEKVTMTCSVSSSVNYMHWYQQKSGTSPKRWIYDTSKLASGVPARFSASGSGTSYSLTISSMEAEDAATYYCQQWTSNPLTFGAGTKLELK
modifications: DFO chelator with 89Zr on the antibody, residues not stated
notes: also called MIL33B-DFO; radiolabeled MIL33B antibody
As to B3, the binding result in [10] and in [11] was “binds” each time.

B4: Flagellin-conjugated MIL33B (other)
VH: EVQLQQSGPELVKPGASVKMSCKASGYTFTSYVMHWVRQSPGQGLEGIGYINSYSDGTKYNEKFKGKATLTSDKSSSTAYMELSGLTSEDSAVYYCARWGGLGNGAMDYWGQGTSVTVSS
VL: QIVLTQSPAIMSASPGEKVTMTCSVSSSVNYMHWYQQKSGTSPKRWIYDTSKLASGVPARFSASGSGTSYSLTISSMEAEDAATYYCQQWTSNPLTFGAGTKLELK
modifications: MIL33B (mouse IgG2a) is chemically conjugated to purified flagellin through a commercial linker kit. Attachment sites and the number of flagellins per antibody are not stated, and the letters cannot carry them.
notes: Chemical conjugate of MIL33B (mouse IgG2a) and flagellin; also called MIL33B-flgn conjugate; MIL33B-flagellin conjugate; not shown: Flagellin (purified, InvivoGen)
B4: in [12], the half-maximal effective concentration (EC50) (commonly the concentration needed to bring the measured effect to its halfway point) is 36000 pM.
